From article PMC11911456, “Investigating synthetic lethality and PARP inhibitor resistance in pancreatic cancer through enantiomer differential activity” (Cell Death Discovery, 2025)

Target: T1, human RAD51 protein (human, UniProt Q06609-1 1-339)
T1 construct: RAD51 recombinase, human, NP_002866, bought from Creative Biomart; This is the RAD51 of the ELISA; source: bought: Creative Biomart
T1 sequence (looked up): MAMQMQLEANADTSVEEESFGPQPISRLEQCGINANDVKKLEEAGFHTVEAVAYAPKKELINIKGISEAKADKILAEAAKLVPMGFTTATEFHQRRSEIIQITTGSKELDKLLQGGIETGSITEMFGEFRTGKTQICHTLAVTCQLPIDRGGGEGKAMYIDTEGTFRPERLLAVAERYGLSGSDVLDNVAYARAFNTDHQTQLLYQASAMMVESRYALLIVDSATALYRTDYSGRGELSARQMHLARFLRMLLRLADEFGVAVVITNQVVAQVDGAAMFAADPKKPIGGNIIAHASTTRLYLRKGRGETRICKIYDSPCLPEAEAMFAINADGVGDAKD
Assay: ELISA; competitive ELISA; BRC4-biotinylated peptide coated on 384-well plates, blocked with 1% BSA/PBS-T, overnight hybridisation with human RAD51; small-molecule compounds added 0.01-100 uM at constant 1% DMSO; detection with anti-RAD51 and HRP-secondary antibodies
Conditions: both partners purified

B1: BRC4-biotinylated peptide (peptide)
peptide: KEPTLLGFHTASGKKVKIAKESLDKVKNLFDEKEQ
modifications: biotin on the N-terminus
notes: BRC4 repeat of BRCA2; holds the FxxA motif (BRCA2 residues 1524-1527) and the LFDE motif (BRCA2 residues 1545-1548) as numbered in the introduction; also called biotinylated BRC4 peptide; BRC4 peptide; source: bought: Life Technologies
B1: binds.
